Measured values: FireProtDB (doi:10.1021/bi100877y)
Several values for one entry are separate records, joined by “and”; a condition that tells them apart may be missing. Identical values can stand only once.

B1: Outer membrane porin C, P06996 (parent)
chain: MKVKVLSLLVPALLVAGAANAAEVYNKDGNKLDLYGKVDGLHYFSDNKDVDGDQTYMRLGFKGETQVTDQLTGYGQWEYQIQGNSAENENNSWTRVAFAGLKFQDVGSFDYGRNYGVVYDVTSWTDVLPEFGGDTYGSDNFMQQRGNGFATYRNTDFFGLVDGLNFAVQYQGKNGNPSGEGFTSGVTNNGRDALRQNGDGVGGSITYDYEGFGIGGAISSSKRTDAQNTAAYIGNGDRAETYTGGLKYDANNIYLAAQYTQTYNATRVGSLGWANKAQNFEAVAQYQFDFGLRPSLAYLQSKGKNLGRGYDDEDILKYVDVGATYYFNKNMSTYVDYKINLLDDNQFTRDAGINTDNIVALGLVYQF

Variants of: B1
Conditions: Escherichia coli (strain K12), pH 7, Thermal, phosphate 50 mM, structure 2J1N, whole UniProt chain shown

Variant | Tm (DSC) [°C] | change of melting temperature, mutant - wild type (higher = more stable) (DSC) [°C] | unfolding enthalpy (calorimetric) (DSC) [kcal/mol] | Tm (CD) [°C] | change of melting temperature, mutant - wild type (higher = more stable) (CD)
MKVKVLSLLVPALLVAGAANAAEVYNKDGNKLDLYGKVDGLHYFSDNKDVDGDQTYMRLGFKGETQVTDQLTGYGQWEYQIQGNSAENENNSWTAVAFAGLKFQDVGSFDYGRNYGVVYDVTSWTGVLPEFGGDTYGSDNFMQQRGNGFATYRNTDFFGLVDGLNFAVQYQGKNGNPSGEGFTSGVTNNGRDALRQNGDGVGGSITYDYEGFGIGGAISSSKRTDAQNTAAYIGNGDRAETYTGGLKYDANNIYLAAQYTQTYNATRVGSLGWANKAQNFEAVAQYQFDFGLRPSLAYLQSKGKNLGRGYDDEDILKYVDVGATYYFNKNMSTYVDYKINLLDDNQFTRDAGINTDNIVALGLVYQF [R95A D126G] | 73.9 | -13 | 192 |  | 
MKVKVLSLLVPALLVAGAANAAEVYNKDGNKLDLYGKVDGLHYFSDNKDVDGDQTYMRLGFKGETQVTDQLTGYGQWEYQIQGNSAENENNSWTCVAFAGLKFQDVGSFDYGRNYGVVYDVTSWTDVLPEFGGDTYGSDNFMQQRGNGFATYRNTDFFGLVDGLNFAVQYQGKNGNPSGEGFTSGVTNNGRDALRQNGDGVGGSITYDYEGFGIGGAISSSKRTDAQNTAAYIGNGDRAETYTGGLKYDANNIYLAAQYTQTYNATRVGSLGWANKAQNFEAVAQYQFDFGLRPSLAYLQSKGKNLGRGYDDEDILKYVDVGATYYFNKNMSTYVDYKINLLDDNQFTRDAGINTDNIVALGLVYQF [R95C] | 84.6 | -2.35 | 297 | 68.4 | -1.5 °C
MKVKVLSLLVPALLVAGAANAAEVYNKDGNKLDLYGKVDGLHYFSDNKDVDGDQTYMRLGFKGETQVTDQLTGYGQWEYQIQGNSAENENNSWTAVAFAGLKFQDVGSFDYGRNYGVVYDVTSWTDVLPEFGGDTYGSDNFMQQRGNGFATYRNTDFFGLVDGLNFAVQYQGKNGNPSGEGFTSGVTNNGRDALRQNGDGVGGSITYDYEGFGIGGAISSSKRTDAQNTAAYIGNGDRAETYTGGLKYDANNIYLAAQYTQTYNATRVGSLGWANKAQNFEAVAQYQFDFGLRPSLAYLQSKGKNLGRGYDDEDILKYVDVGATYYFNKNMSTYVDYKINLLDDNQFTRDAGINTDNIVALGLVYQF [R95A] | 81.3 | -5.66 | 258 |  | 
MKVKVLSLLVPALLVAGAANAAEVYNKDGNKLDLYGKVDGLHYFSDNKDVDGDQTYMRLGFKGETQVTDQLTGYGQWEYQIQGNSAENENNSWTSVAFAGLKFQDVGSFDYGRNYGVVYDVTSWTDVLPEFGGDTYGSDNFMQQRGNGFATYRNTDFFGLVDGLNFAVQYQGKNGNPSGEGFTSGVTNNGRDALRQNGDGVGGSITYDYEGFGIGGAISSSKRTDAQNTAAYIGNGDRAETYTGGLKYDANNIYLAAQYTQTYNATRVGSLGWANKAQNFEAVAQYQFDFGLRPSLAYLQSKGKNLGRGYDDEDILKYVDVGATYYFNKNMSTYVDYKINLLDDNQFTRDAGINTDNIVALGLVYQF [R95S] | 81.7 | -5.26 | 299 |  | -1.8 °C and -6.8 °C
MKVKVLSLLVPALLVAGAANAAEVYNKDGNKLDLYGKVDGLHYFSDNKDVDGDQTYMRLGFKGETQVTDQLTGYGQWEYQIQGNSAENENNSWTGVAFAGLKFQDVGSFDYGRNYGVVYDVTSWTDVLPEFGGDTYGSDNFMQQRGNGFATYRNTDFFGLVDGLNFAVQYQGKNGNPSGEGFTSGVTNNGRDALRQNGDGVGGSITYDYEGFGIGGAISSSKRTDAQNTAAYIGNGDRAETYTGGLKYDANNIYLAAQYTQTYNATRVGSLGWANKAQNFEAVAQYQFDFGLRPSLAYLQSKGKNLGRGYDDEDILKYVDVGATYYFNKNMSTYVDYKINLLDDNQFTRDAGINTDNIVALGLVYQF [R95G] | 80.8 | -6.19 | 326 | 68.1 | -1.8 °C
MKVKVLSLLVPALLVAGAANAAEVYNKDGNKLDLYGKVDGLHYFSDNKDVDGDQTYMRLGFKGETQVTDQLTGYGQWEYQIQGNSAENENNSWTRVAFAGLKFQDVGSFDYGRNYGVVYDVTSWTGVLPEFGGDTYGSDNFMQQRGNGFATYRNTDFFGLVDGLNFAVQYQGKNGNPSGEGFTSGVTNNGRDALRQNGDGVGGSITYDYEGFGIGGAISSSKRTDAQNTAAYIGNGDRAETYTGGLKYDANNIYLAAQYTQTYNATRVGSLGWANKAQNFEAVAQYQFDFGLRPSLAYLQSKGKNLGRGYDDEDILKYVDVGATYYFNKNMSTYVDYKINLLDDNQFTRDAGINTDNIVALGLVYQF [D126G] | 81.5 | -5.44 | 304 |  | 
MKVKVLSLLVPALLVAGAANAAEVYNKDGNKLDLYGKVDGLHYFSDNKDVDGDQTYMHLGFKGETQVTDQLTGYGQWEYQIQGNSAENENNSWTRVAFAGLKFQDVGSFDYGRNYGVVYDVTSWTDVLPEFGGDTYGSDNFMQQRGNGFATYRNTDFFGLVDGLNFAVQYQGKNGNPSGEGFTSGVTNNGRDALRQNGDGVGGSITYDYEGFGIGGAISSSKRTDAQNTAAYIGNGDRAETYTGGLKYDANNIYLAAQYTQTYNATRVGSLGWANKAQNFEAVAQYQFDFGLRPSLAYLQSKGKNLGRGYDDEDILKYVDVGATYYFNKNMSTYVDYKINLLDDNQFTRDAGINTDNIVALGLVYQF [R58H] | 87.3 | 0.31 | 359 |  | -1.5 °C and -1.1 °C and -2 °C
